The target of experiment [1] is HIV-1 92RW020 Env on pseudovirus (HIV-1 strain 92RW020). Nature of the experiment: cell-based or functional assay.
The target of experiment [2] is HIV-1 ADA Env (gp160), on transfected 293 cells or on ADA pseudovirus (HIV-1 strain ADA). Briefly: cell-based or functional assay.
Experiment [3] has as its target T1, HIV-1 YU2 gp160 expressed on the surface of transfected 293/293T cells (HIV-1 strain YU2, UniProt P35961 32-843).
T1 construct: whole, on cells
Briefly: binding to YU2 gp160 on the cell surface (FIG. 7).

In experiment [4] the target is HIV-1 JR-FL(E168K) Env on pseudovirus (HIV-1 strain JR-FL). Nature of the experiment: cell-based or functional assay.

B1: 1496_C09 (PG9) human monoclonal antibody (antibody, V domains shown)
VH: QRLVESGGGVVQPGSSLRLSCAASGFDFSRQGMHWVRQAPGQGLEWVAFIKYDGSEKYHADSVWGRLSISRDNSKDTLYLQMNSLRVEDTATYFCVREAGGPDYRNGYNYYDFYDGYYNYHYMDVWGKGTTVTVSS
VL: QSALTQPASVSGSPGQSITISCNGTSNDVGGYESVSWYQQHPGKAPKVVIYDVSKRPSGVSNRFSGSKSGNTASLTISGLQAEDEGDYYCKSLTSTRRRVFGTGTKLTVLG
For B1, the results for the “IC50 (ug/ml), pseudovirus neutralisation, TZM-bl assay” value in experiment [1] and in experiment [2] were 0.1 µg/mL and 0.2 µg/mL, respectively.

B2: 1443_C16 (PG16) human monoclonal antibody (antibody, V domains shown)
VH: QEQLVESGGGVVQPGGSLRLSCLASGFTFHKYGMHWVRQAPGKGLEWVALISDDGMRKYHSDSMWGRVTISRDNSKNTLYLQFSSLKVEDTAMFFCAREAGGPIWHDDVKYYDFNDGYYNYHYMDVWGKGTTVTVSS
VL: QSALTQPASVSGSPGQTITISCNGTSSDVGGFDSVSWYQQSPGKAPKVMVFDVSHRPSGISNRFSGSKSGNTASLTISGLHIEDEGDYFCSSLTDRSHRIFGGGTKVTVLG
Take B2: the binding result in experiment [3] is reported as “binds”. Also, the “IC50 (ug/ml), pseudovirus neutralisation, TZM-bl assay” value in experiment [1] came to 0.09 µg/mL; in experiment [4] it was 0.006 µg/mL; in experiment [2], 0.004 µg/mL.

(Values after US20150218257A1 (published 2015).)
